# From the RNAGym collection of RNA variant scans (doi:10.7554/elife.80360)
# B1: CPEB3 Ribozyme (parent)
# chain: GGGGGCCACAGCAGAAGCGUUCACGUCGCGGCCCCUGUCAGAUUCUGGUGAAUCUGCGAAUUCUGCUGU
# Variants of: B1
# Assay: self-cleavage, relative activity (ratio to wild type); higher = more cleavage; co-transcriptional
row,Variant,self-cleavage
1,G1C G48U,0.241
2,G1C U44A,0.231
3,G1C U44G,0.151
4,G1C G58A,0.172
5,G1C G58C,0.267
6,G1C G58U,0.248
7,G1C C54G,0.321
8,G1C C6G,0.658
9,G1C C6A,0.26
10,G1C C6U,0.282
11,G1C C66A,0.226
12,G1C C66U,0.172
13,G1C C7A,0.144
14,G1C C7G,0.128
15,G1C U64A,0.236
16,G1C U64C,0.179
17,G1U C29U,0.0573
18,G1U C29A,0.111
19,G1U C29G,0.0597
20,G1C G68A,0.304
21,G1C G68U,0.297
22,G1C G68C,0.219
23,G1C C35U,0.167
24,G1C C35A,0.069

row,Variant,self-cleavage
1,G1C C35G,0.161
2,G1C G50U,0.169
3,G1C A59U,0.147
4,G1C A59G,0.26
5,G1C A59C,0.27
6,G1U A42U,0.0891
7,G1U A42C,0.0921
8,G1U A42G,0.0976
9,G1C C27U,0.131
10,G1C C27A,0.211
11,G1C C27G,0.124
12,G1C U49G,0.275
13,G1C U49C,0.116
14,G1C G37C,0.125
15,G1C G37U,0.101
16,G1C U46C,0.248
17,G1U,0.11
18,G1C C33U,0.282
19,G1C C33A,0.197
20,G1C C33G,0.118
21,G1U C18U,0.104
22,G1U C18G,0.115
23,G1U A40C,0.0668
24,G1C U43A,0.202

row,Variant,self-cleavage
1,G1C U43G,0.205
2,G1C U43C,0.245
3,G1C G19A,0.086
4,G1C C57G,0.104
5,G1C C57A,0.116
6,G1C G25C,0.103
7,G1C G25A,0.0736
8,G1C G25U,0.0853
9,G1C G47A,0.242
10,G1C G47U,0.268
11,G1C G47C,0.213
12,G1C G3U,0.0766
13,G1C G3A,0.174
14,G1C U21G,0.244
15,G1C U21C,0.184
16,G1C G30A,0.192
17,G1C G30C,0.174
18,G1U A52U,0.129
19,G1U A52G,0.167
20,G1C G14A,0.152
21,G1C G14U,0.164
22,G1C G17U,0.155
23,G1C G17A,0.124
24,G1C G17C,0.0857

row,Variant,self-cleavage
1,G1U C27G,0.0589
2,G1U C27A,0.0657
3,G1U A16C,0.022
4,G1U A13U,0.122
5,G1C G65U,0.212
6,G1C G4C,0.216
7,G1C G4A,0.225
8,G1U A15G,0.191
9,G1U A15C,0.136
10,G1U A60C,0.0797
11,G1C U67A,0.193
12,G1C U67C,0.19
13,G1C A52U,0.201
14,G1U C6U,0.0906
15,G1U C6A,0.0884
16,G1U C6G,0.126
17,G1U C32U,0.157
18,G1U C32A,0.201
19,G1U C32G,0.09
20,G1C G31A,0.272
21,G1C G31U,0.266
22,G1C G31C,0.0643
23,G1C U38G,0.112
24,G1C U38C,0.231

row,Variant,self-cleavage
1,G1C C9G,0.203
2,G1C C9U,0.246
3,G1C U61G,0.271
4,G1C U61C,0.141
5,G1C U36C,0.177
6,G1C U36A,0.0531
7,G1C C22A,0.0757
8,G1C C22G,0.0703
9,G1U C22U,0.102
10,G1U C22G,0.0638
11,G1U C22A,0.0628
12,G1C C32U,0.327
13,G1C C32A,0.279
14,G1C C24A,0.0947
15,G1C U69A,0.182
16,G1C C45G,0.182
17,G1C C45A,0.252
18,G1C C45U,0.24
19,G1C G41C,0.23
20,G1C G41A,0.19
21,G1C U62A,0.279
22,G1C U62G,0.177
23,G1U A10U,0.127
24,G1U A59C,0.0892

row,Variant,self-cleavage
1,G1U A59U,0.114
2,G1U A59G,0.148
3,G1C C12G,0.238
4,G1C C12U,0.252
5,G1C C12A,0.164
6,G1U C12G,0.106
7,G1U C12U,0.124
8,G1U A51C,0.114
9,G1U A51G,0.126
10,G1U A51U,0.148
11,G1C U20G,0.131
12,G1C U20C,0.098
13,G1C C29G,0.106
14,G1C C29U,0.105
15,G1U C7A,0.0722
16,G1U C7G,0.127
17,G1U C24G,0.0268
18,G1C U53G,0.232
19,G1C U53A,0.225
20,G1C C34G,0.159
21,G1C C34U,0.236
22,G1C C34A,0.152
23,G1C G56A,0.223
24,G1C G56C,0.186

row,Variant,self-cleavage
1,G1C C63U,0.164
2,G1C C63A,0.199
3,G1C U55C,0.167
4,G1C U55A,0.189
5,G1C G2A,0.408
6,G1C G5U,0.114
7,G1C U26C,0.162
8,G1C U26G,0.152
9,G1C A60G,0.273
10,G1C A60C,0.0756
11,G1U C9U,0.219
12,G1U C9G,0.233
13,G1U A8U,0.0804
14,G1U A8C,0.0263
15,G1C G11U,0.164
16,G1C G11A,0.14
17,G1C G11C,0.165
18,G1C G28C,0.12
19,G1C G28U,0.0985
20,G1U C33A,0.176
21,G1U A23U,0.108
22,G1C C39G,0.217
23,G1C C39U,0.227
